PMC7545097, “Mapping the native interaction surfaces of PREP1 with PBX1 by cross-linking mass-spectrometry and mutagenesis” (Scientific Reports, 2020)
Positions count from the first letter of the chain named. Each block holds one binder with its values, some of them ahead of it.

Legend:
[1] = biological target: T1, PBX1 I211A (human, UniProt P40424 1-430, I211A); assay: time-resolved fluorescence immunoassay (TR-FIA); plate coated with monoclonal anti-PBX1; PBX1 pre-incubated with PREP1 or MEIS1 for 1 h on ice, 10 µg/mL in 1% BSA PBS, 1 h at room temperature on the plate; detected with anti-PREP1 or biotinylated anti-MEIS1/2 and Eu^3+ conjugates; normalised to the wild-type protein taken as 1; conditions: both partners purified
T1 construct: PBX1, residues 1-430; source: E. coli, purified
T1 sequence (looked up): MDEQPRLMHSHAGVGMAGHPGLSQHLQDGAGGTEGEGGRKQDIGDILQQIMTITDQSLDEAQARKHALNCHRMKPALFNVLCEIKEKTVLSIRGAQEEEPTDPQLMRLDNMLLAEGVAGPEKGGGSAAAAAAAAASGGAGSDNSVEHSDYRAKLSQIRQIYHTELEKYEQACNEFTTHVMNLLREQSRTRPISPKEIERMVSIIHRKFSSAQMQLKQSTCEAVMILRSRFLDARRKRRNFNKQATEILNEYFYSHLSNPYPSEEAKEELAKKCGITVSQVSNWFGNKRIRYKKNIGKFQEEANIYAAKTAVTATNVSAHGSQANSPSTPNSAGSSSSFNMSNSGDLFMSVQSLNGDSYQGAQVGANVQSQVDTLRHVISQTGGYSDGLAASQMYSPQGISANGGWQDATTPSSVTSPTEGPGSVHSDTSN

[2] = biological target: single mutations of most hydrophobic residues (V80, L81 and I84) of PBX1; assay: as above
[3] = biological target: double or triple mutants (L77A/V80A, L77A/I84A, V80A/L81A, L77A/V80A/L81A) of PBX1; assay: as above
[4] = biological target: PBX1Δ197-204 (human) (UniProt P40424); assay: as above
[5] = biological target: T2, N-terminal GST-fused wild-type PREP1 (UniProt P55347 1-436); assay: ELISA; PBX1 wild-type coated at 0.1 µM in 100 mM Tris–HCl pH 7.5; GST-fused proteins at 0.23 nM to 0.5 µM, 1 h at 37 °C; anti-GST detection; GST signal subtracted; one-site binding model; conditions: both partners purified
T2 construct: PREP1 (PKNOX1), residues 1-436; Detected through GST in the ELISA; also called GST-fused PREP1; source: E. coli, purified; not shown: GST, N-terminal, kept
T2 sequence (looked up): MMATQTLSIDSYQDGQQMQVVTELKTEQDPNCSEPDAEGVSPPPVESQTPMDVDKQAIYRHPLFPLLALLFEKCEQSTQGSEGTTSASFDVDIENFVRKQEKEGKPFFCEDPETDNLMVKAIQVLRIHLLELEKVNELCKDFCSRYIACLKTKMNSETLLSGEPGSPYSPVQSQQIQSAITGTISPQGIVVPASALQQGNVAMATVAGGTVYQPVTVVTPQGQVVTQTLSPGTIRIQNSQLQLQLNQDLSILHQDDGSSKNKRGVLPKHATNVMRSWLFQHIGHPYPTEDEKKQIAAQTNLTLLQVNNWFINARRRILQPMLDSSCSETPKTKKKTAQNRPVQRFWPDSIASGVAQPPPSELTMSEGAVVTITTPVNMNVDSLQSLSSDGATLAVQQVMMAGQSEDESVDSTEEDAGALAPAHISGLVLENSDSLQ

binding relative to wild type [1]: ~65% | binding relative to wild type [2]: 40 to 60% | binding relative to wild type [3]: 30 to 40% | binding relative to wild type [4]: 65%
B1: PREP1_(1-436), wild-type recombinant (TR-FIA) (natural protein, UniProt P55347 1-436, looked up)
chain: T2 sequence (looked up)
notes: also called wild-type PREP1; PKNOX1; source: E. coli, purified

Kd [5]: 18 ± 4 nM
B2: PBX1_(1-430), wild-type recombinant (natural protein, human, UniProt P40424 1-430, looked up)
chain: T1 sequence (looked up) with A211I
notes: also called wild-type PBX1; purified recombinant human PBX1; source: E. coli, purified
